Measurements as given in FireProtDB (doi:10.1002/pro.381).

Details: Kitasatospora aureofaciens, pH 7, CD, MOPS 30 mM, whole UniProt chain shown; for denaturant m value / denaturant midpoint (higher = more stable) / unfolding free energy: 25 °C

B1: Guanyl-specific ribonuclease Sa wild type, P05798 (protein)
chain: DVSGTVCLSALPPEATDTLNLIASDGPFPYSQDGVVFQNRESVLPTQSYGYYHEYTVITPGARTRGTRRIITGEATQEDYYTGDHYATFSLIDQTC
- denaturant m value (GdnHCl): 2.43 kcal/mol/M
- denaturant midpoint (higher = more stable) (GdnHCl): 2.99 M
- unfolding free energy (GdnHCl): 7.3 kcal/mol
- denaturant m value (Urea): 0.96 kcal/mol/M
- denaturant midpoint (higher = more stable) (Urea): 6.06 M
- unfolding free energy (Urea): 5.8 kcal/mol
- Tm (Thermal): 49.3 °C
- heat capacity change of unfolding (Thermal): 1.52 kcal/mol/K
- unfolding enthalpy (van 't Hoff) (Thermal): 93 kcal/mol
